The target of test [1] is each construct (cells transfected with either wild type or the PCSK9 binding-deficient LDLR mRNAs). Description: flow cytometry, half-maximal cell association of BODIPY-LDL on transfected HEK293 cells. In general terms: A flow cytometer gives signals particle by particle.
Test [2] addresses mouse LDLR mutant 1 (LDLR_N317A, K832R, C841A) (mouse) (UniProt P35951). Briefly: cell-based or functional assay.
Test [3] addresses wild type mouse LDLR (mouse) (UniProt P35951). Briefly: cell-based or functional assay.

Consider two molecules from US20190248864A1.

In general, EC50 refers to the concentration needed to bring the measured effect to its halfway point. High values mean a less potent agent, low ones a more potent agent. Turning to “BODIPY-labeled LDL (low density lipoprotein) (from UniProt P04114 28-4563) (ligand)”, in test [1], the concentration for a half-maximal effect (EC50) fell in the range of 0.6 to 0.7 ng/mL.

B1: mouse IDOL (inducible degrader of the LDLR) (enzyme, UniProt Q8BM54 1-445, looked up)
chain: MLCYVTRPDAVLMEVEVEAKANGEDCLNQVCRRLGIIEVDYFGLQFTGSKGESLWLNLRNRISQQMDGLAPYRLKLRVKFFVEPHLILQEQTRHIFFLHIKESLLAGHLQCSPEQAVELSALLAQTKFGDYNQNTAQYSYEDLCEKELSSSTLNSIVAKHKELEGISQASAEYQVLQIVSAMENYGIEWHAVRDSEGQKLLIGVGPEGISICKEDFSPINRIAYPVVQMATQSGKNVYLTVTKESGNSIVLLFKMISTRAASGLYRAITETHAFYRCDTVTSAVMMQYSRDLKGHLASLFLNENINLGKKYVFDIKRTSKEVYDHARRALYNAGVVDLVSRSDQSPPSSPLKSSDSSMSCSSCEGLSCQQTRVLQEKLRKLKEAMLCMACCEEEINSTFCPCGHTVCCESCAAQLQSCPVCRSRVEHVQHVYLPTHTSLLNLTVI
In test [2], B1 had an Average LDLR MCF, HeLa cells, co-transfected with IDOL (with Luciferase: 8369) of 7050 MCF; an Average LDLR MCF, Hepa1-6, co-transfected with IDOL (with Luciferase: 14080) of 8860 MCF; an LDLR expression as percent of the baseline, HeLa cells (% of the baseline) of 84.2; an LDLR expression as percent of the baseline, Hepa1-6 (% of the baseline) of 62.9. In test [3], this molecule returned an Average LDLR MCF, HeLa cells, co-transfected with IDOL (with Luciferase: 5773) of 2920 MCF; an Average LDLR MCF, Hepa1-6, co-transfected with IDOL (with Luciferase: 5272) of 881 MCF; an LDLR expression as percent of the baseline, HeLa cells (% of the baseline) of 50.5; an LDLR expression as percent of the baseline, Hepa1-6 (% of the baseline) of 16.7. This molecule displayed an LDLR expression as percent of the baseline, Hepa1-6 cells given no LDLR mRNA (luciferase row of Table 15) (% of the baseline) in test [3] of 62.3.
